According to the supplement of paper PMC5998384:

How the values were obtained:
HeLa Kyoto [1] = experiment: solubility change mitosis vs G1/S (difference of NP-40 vs SDS log2 ratios) (log2 ratio difference); higher = more soluble in mitosis
HeLa Kyoto [2] = experiment: solubility in G1/S (NP-40 vs SDS abundance) (log2 ratio); higher = more soluble; conditions: cell cycle stage: G1/S
HeLa Kyoto [3] = experiment: thermal stability score vs G1/S (z-score of summed log2 fold changes over temperatures); higher = more thermally stable than in G1/S
HeLa Kyoto [4] = experiment: melting temperature (median over replicates), in situ; higher = more thermally stable
[5] = cell cycle stage: early G1 (4.5 h after nocodazole release)
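Throughout, for melting temperature (median over replicates), in situ: HeLa Kyoto cells synchronized by double thymidine or nocodazole block, proteins quantified by TMT10plex mass spectrometry, three independent biological replicates.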
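Throughout, for solubility change mitosis vs G1/S (difference of NP-40 vs SDS log2 ratios): synchronized HeLa Kyoto cells (double thymidine block for G1/S, nocodazole release for mitosis), protein amounts in NP-40 versus SDS lysates quantified by mass spectrometry, three biological replicates.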
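Throughout, for solubility in G1/S (NP-40 vs SDS abundance): HeLa Kyoto cells arrested at G1/S by double thymidine block, proteins quantified by TMT10plex mass spectrometry in mild NP-40 versus SDS extracts, three biological replicates.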
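Throughout, for thermal stability score vs G1/S (z-score of summed log2 fold changes over temperatures): synchronized HeLa Kyoto cells, proteins quantified by TMT10plex mass spectrometry, three biological replicates, mitosis taken 0.5 h after nocodazole release, G1/S directly after double thymidine block.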

C1GALT1, sequence (chain, as listed by the source): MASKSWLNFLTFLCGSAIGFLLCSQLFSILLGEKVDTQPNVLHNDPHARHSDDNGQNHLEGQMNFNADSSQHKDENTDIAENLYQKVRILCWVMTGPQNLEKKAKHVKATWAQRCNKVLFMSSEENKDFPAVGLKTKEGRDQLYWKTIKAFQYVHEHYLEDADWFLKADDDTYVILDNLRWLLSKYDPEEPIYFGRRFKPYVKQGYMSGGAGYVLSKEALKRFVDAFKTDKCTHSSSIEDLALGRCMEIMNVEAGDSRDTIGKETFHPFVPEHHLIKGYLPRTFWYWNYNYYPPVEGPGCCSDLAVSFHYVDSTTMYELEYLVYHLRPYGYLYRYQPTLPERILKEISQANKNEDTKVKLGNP

Substance | solubility change mitosis (log2) (HeLa Kyoto [1]) | solubility in G1/S (log2) (HeLa Kyoto [2]) | thermal stability score (HeLa Kyoto [3]; [5]) | thermal stability score (HeLa Kyoto [3]; cell cycle stage: mitosis) | melting temperature (HeLa Kyoto [4]; cell cycle stage: G1/S) [°C] | melting temperature (HeLa Kyoto [4]; cell cycle stage: mitosis) [°C]
MEVNPPKQEHLLALKVMRLTKPTLFTNIPVTCEEKDLPGDLFNQLMRDDPSTVNGAEVLMLGEMLTLPQNFGNIFLGETFSSYISVHNDSNQVVKDILVKADLQTSSQRLNLSASNAAVAELKPDCCIDDVIHHEVKEIGTHILVCAVSYTTQAGEKMYFRKFFKFQVLKPLDVKTKFYNAESDLSSVTDEVFLEAQIQNMTTSPMFMEKVSLEPSIMYNVTELNSVSQAGECVSTFGSRAYLQPMDTRQYLYCLKPKNEFAEKAGIIKGVTVIGKLDIVWKTNLGERGRLQTSQLQRMAPGYGDVRLSLEAIPDTVNLEEPFHITCKITNCSERTMDLVLEMCNTNSIHWCGISGRQLGKLHPSSSLCLALTLLSSVQGLQSISGLRLTDTFLKRTYEYDDIAQVCVVSSAIKVES [TRAPPC13] | -0.173 | 0.0799 | -0.207 | 0.0312 | 50 | 49.9
MEHIRTTKVEQVKLLDRFSTSNKSLTGTLYLTATHLLFIDSHQKETWILHHHIASVEKLALTTSGCPLVIQCKNFRTVHFIVPRERDCHDIYNSLLQLSKQAKYEDLYAFSYNPKQNDSERLQGWQLIDLAEEYKRMGVPNSHWQLSDANRDYKICETYPRELYVPRIASKPIIVGSSKFRSKGRFPVLSYYHQDKEAAICRCSQPLSGFSARCLEDEHLLQAISKANPVNRYMYVMDTRPKLNAMANRAAGKGYENEDNYSNIRFQFVGIENIHVMRSSLQKLLEVNGTKGLSVNDFYSGLESSGWLRHIKAVMDAAIFLAKAITVENASVLVHCSDGWDRTSQVCSLGSLLLDSYYRTIKGFMVLIEKDWISFGHKFSERCGQLDGDPKEVSPVFTQFLECVWHLTEQFPQAFEFSEAFLLQIHEHIHSCQFGNFLGNCQKEREELKLKEKTYSLWPFLLEDQKKYLNPLYSSESHRFTVLEPNTVSFNFKFWRNMYHQFDRTLHPRQSVFNIIMNMNEQNKQLEKDIKDLESKIKQRKNKQTDGILTKELLHSVHPESPNLKTSLCFKEQTLLPVNDALRTIEGSSPADNRYSEYAEEFSKSEPAVVSLEYGVARMTC [MTMR6] | 0.0297 | -0.264 | -0.167 | 0.0404 | 51 | 50.5
MMPGPRPRKGPQARGQGVAAAKQMGLFMEFGPEDMLLGMDEAEDDEDLEAELLALTGEAQTTGKKPAPKGQAPLPMAHIEKLAADCMRDVEEEEEEEGLEEDAELLTELQEVLGVDEETEPLDGDEVADPGGSEEENGLEDTEPPVQTAVLTASAPAAQAGASQGLHALLEERIHNYREAAASAKEAGEAAKARRCERGLKTLESQLASVRRGRKINEDEIPPPVALGKRPLAPQEPANRSPETDPPAPPALESDNPSQPETSLPGISAQPVSDLDPDPRALLSSRQREYKVAALSAKRAGELDRARELMRIGKRFGAVLEALEKGQPVDLSAMPPAPEDLKPQQASQAPTAPSVIPPAVERVQPVMAPDVPATPVAPTESQTVLDALQQRLNKYREAGIQARSGGDERKARMHERIAKQYQDAIRAHRAGRKVNFAELPVPPGFPPIPGLESTMGVEEDAVAATLAAAEKLASAEDSAPADKDEDEPPGHLQGEPPAQAPVAKKPARPTVPSSQRLPEPRASSSKESPSPSVREQLALLEARKLQYQRAALQAKRSQDLEQAKAYLRVAKWLEAQIIQARSGRPVDLSKVPSPLTDEEGDFILIHHEDLRLSQKAEEVYAQLQKMLLEQQEKCLLFSKQFMHQGNVAETTRFEKLAQDRKKQLEILQLAQAQGLDPPTHHFELKTFQTVRIFSELNSTEMHLIIVRGMNLPAPPGVTPDDLDAFVRFEFHYPNSDQAQKSKTAVVKNTNSPEFDQLFKLNINRNHRGFKRVIQSKGIKFEIFHKGSFFRSDKLVGTAHLKLERLENECEIREIVEVLDGRKPTGGKLEVKVRLREPLSGQDVQMVTENWLVLEPRGL [CC2D1B] | -0.000596 | 0.252 | 0.395 | 0.256 | 50.4 | 50.3
JMJD1C | -0.0573 | -0.105 | 0.98 | 0.156 | 50.2 | 50.7
MAERKPNGGSGGASTSSSGTNLLFSSSATEFSFNVPFIPVTQASASPASLLLPGEDSTDVGEEDSFLGQTSIHTSAPQTFSYFSQVSSSSDPFGNIGQSPLTTAATSVGQSGFPKPLTALPFTTGSQDVSNAFSPSISKAQPGAPPSSLMGINSYLPSQPSSLPPSYFGNQPQGIPQPGYNPYRHTPGSSRANPYIAPPQLQQCQTPGPPAHPPPSGPPVQMYQMPPGSLPPVPSSVQSPAQQQVPARPGAPSVQVPSPFLLQNQYEPVQPHWFYCKEVEYKQLWMPFSVFDSLNLEEIYNSVQPDPESVVLGTDGGRYDVYLYDRIRKAAYWEEEPAEVRRCTWFYKGDTDSRFIPYTEEFSEKLEAEYKKAVTTNQWHRRLEFPSGETIVMHNPKVIVQFQPSSVPDEWGTTQDGQTRPRVVKRGIDDNLDEIPDGEMPQVDHLVFVVHGIGPVCDLRFRSIIECVDDFRVVSLKLLRTHFKKSLDDGKVSRVEFLPVHWHSSLGGDATGVDRNIKKITLPSIGRFRHFTNETLLDILFYNSPTYCQTIVEKVGMEINHLHALFMSRNPDFKGGVSVAGHSLGSLILFDILSNQKDLNLSKCPGPLAVANGVVKQLHFQEKQMPEEPKLTLDESYDLVVENKEVLTLQETLEALSLSEYFSTFEKEKIDMESLLMCTVDDLKEMGIPLGPRKKIANFVEHKAAKLKKAASEKKAVAATSTKGQEQSAQKTKDMASLPSESNEPKRKLPVGACVSSVCVNYESFEVGAGQVSVAYNSLDFEPEIFFALGSPIAMFLTIRGVDRIDENYSLPTCKGFFNIYHPLDPVAYRLEPMIVPDLDLKAVLIPHHKGRKRLHLELKESLSRMGSDLKQGFISSLKSAWQTLNEFARAHTSSTQLQEELEKVANQIKEEEEKQVVEAEKVVESPDFSKDEDYLGKVGMLNGGRRIDYVLQEKPIESFNEYLFALQSHLCYWESEDTALLLLKEIYRTMNISPEQPQH [SEC23IP] | -0.197 | 0.171 | -1.73 | -1.12 | 50.5 | 50.3
MARKRAAGGEPRGRELRSQKSKAKSKARREEEEEDAFEDEKPPKKSLLSKVSQGKRKRGCSHPGGSADGPAKKKVAKVTVKSENLKVIKDEALSDGDDLRDFPSDLKKAHHLKRGATMNEDSNEEEEESENDWEEVEELSEPVLGDVRESTAFSRSLLPVKPVEIEIETPEQAKTRERSEKIKLEFETYLRRAMKRFNKGVHEDTHKVHLLCLLANGFYRNNICSQPDLHAIGLSIIPARFTRVLPRDVDTYYLSNLVKWFIGTFTVNAELSASEQDNLQTTLERRFAIYSARDDEELVHIFLLILRALQLLTRLVLSLQPIPLKSATAKGKKPSKERLTADPGGSSETSSQVLENHTKPKTSKGTKQEETFAKGTCRPSAKGKRNKGGRKKRSKPSSSEEDEGPGDKQEKATQRRPHGRERRVASRVSYKEESGSDEAGSGSDFELSSGEASDPSDEDSEPGPPKQRKAPAPQRTKAGSKSASRTHRGSHRKDPSLPAASSSSSSSKRGKKMCSDGEKAEKRSIAGIDQWLEVFCEQEEKWVCVDCVHGVVGQPLTCYKYATKPMTYVVGIDSDGWVRDVTQRYDPVWMTVTRKCRVDAEWWAETLRPYQSPFMDREKKEDLEFQAKHMDQPLPTAIGLYKNHPLYALKRHLLKYEAIYPETAAILGYCRGEAVYSRDCVHTLHSRDTWLKKARVVRLGEVPYKMVKGFSNRARKARLAEPQLREENDLGLFGYWQTEEYQPPVAVDGKVPRNEFGNVYLFLPSMMPIGCVQLNLPNLHRVARKLDIDCVQAITGFDFHGGYSHPVTDGYIVCEEFKDVLLTAWENEQAVIERKEKEKKEKRALGNWKLLAKGLLIRERLKRRYGPKSEAAAPHTDAGGGLSSDEEEGTSSQAEAARILAASWPQNREDEEKQKLKGGPKKTKREKKAAASHLFPFEQL [XPC] | 0.43 | -0.919 | 0.959 | 2.74 | 47.7 | 48.4
MPKVKRSRKAPPDGWELIEPTLDELDQKMREAETEPHEGKRKVESLWPIFRIHHQKTRYIFDLFYKRKAISRELYEYCIKEGYADKNLIAKWKKQGYENLCCLRCIQTRDTNFGTNCICRVPKSKLEVGRIIECTHCGCRGCSG [BUD31] | 0.184 | -0.0954 | 1.19 | 0.411 | 51.1 | 50.9
C1GALT1 | -0.0544 | 0.222 | -1.2 | 0.982 | 53.7 | 53.6
MREYKLVVLGSGGVGKSALTVQFVQGIFVEKYDPTIEDSYRKQVEVDCQQCMLEILDTAGTEQFTAMRDLYMKNGQGFALVYSITAQSTFNDLQDLREQILRVKDTEDVPMILVGNKCDLEDERVVGKEQGQNLARQWCNCAFLESSAKSKINVNEIFYDLVRQINRKTPVEKKKPKKKSCLLL [RAP1A] | -0.0963 | 0.0631 | 1.29 | -0.46 | 58.5 | 57.6
MVLLESEQFLTELTRLFQKCRTSGSVYITLKKYDGRTKPIPKKGTVEGFEPADNKCLLRATDGKKKISTVVSSKEVNKFQMAYSNLLRANMDGLKKRDKKNKTKKTKAAAAAAAAAPAAAATAPTTAATTAATAAQ [SRP14] | 0.409 | 0.1 | -2.96 | -4.66 | 53.6 | 52.6
